± gives the uncertainty stated by the source.
Assay: self-splicing fitness, log relative to wild type (ln ratio); higher = more splicing; Tetrahymena group I intron in knt gene, E. coli kanamycin selection, DiMSum; sequences stand for … in CUCUCU…GGAGGGAAAAGUUAUCAGGCAUGCACCUGGUAGCUAGUCUUUAAACCAAUAGAUUGCAUCGGUUUAAAAGGCAAGACCGUCAAAUUGCGGGAAAGGGGUCAACAGCCGUUCAGUACCAAGUCUCAGGGGAAACUUUGAGAUGGCCUUGCAAAGGGUAUGGUAAUAAGCUGACGGACAUGGUCCUAACCACGCAGCCAAGUCCUAAGUCAACAGAUCUUCUGUUGAUAUGGAUGCAGUUCACAGACUAAAUGUCGGUCGGGGAAGAUGUAUUCUUCUCAUAAGAUAUAGUCGGACCUCUCCUUAAUGGGAGCUAGCGGAUGAAGUGAUGCAACACUGGAGCCGCUGGGAACUAAUUUGUAUGCGAAAGUAUAUUGAUUAGUUUUGGAGUACUCGUGGUCG
Outline: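 Six replicate transformations of E. coli BL21(DE3) with a pET-22b(+) library were grown overnight at 37°C or 30°C. The library randomised all eight P1ex-region intron nucleotides, the intron lying in the knt kanamycin-resistance gene, and plates were LB agar with or without 25 μg/mL kanamycin plus 100 μg/mL carbenicillin, 50 μM IPTG and 0.2% rhamnose. Pooled colonies were amplicon-sequenced on an Illumina HiSeq 2500, and fitness is the DiMSum error-weighted combination of wild-type-normalised replicate fold changes, kanamycin versus none.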

Sequence	self-splicing fitness (ln) (30 °C)	self-splicing fitness (ln) (37 °C)
CUGUAGCAAUAUUACGUGUU	-4.29 ± 0.17	-0.79 ± 0.13
CAGGAGCAAUAUUACGAACG	-0.795 ± 0.11	-0.844 ± 0.13
CAUGAGCAAUAUUACGGCGA	-3.34 ± 0.31	-2.53 ± 0.25
UACGAGCAAUAUUACGGCCA	-1.61 ± 0.21	-1.85 ± 0.18
AAUCAGCAAUAUUACGACUA	0.113 ± 0.14	-0.783 ± 0.12
AUUUAGCAAUAUUACGUUGG	-3.51 ± 0.2	-2.62 ± 0.22
GUUUAGCAAUAUUACGGCUU	-1.08 ± 0.13	-0.894 ± 0.12
GCACAGCAAUAUUACGGCAC	-0.752 ± 0.061	-0.122 ± 0.073
GUCAAGCAAUAUUACGAAAU	-2.14 ± 0.13	-0.595 ± 0.12
CUCCAGCAAUAUUACGAUUG	-1.53 ± 0.078	-0.899 ± 0.11
ACAGAGCAAUAUUACGGUUC	-3.68 ± 0.23	-2.16 ± 0.22
CCAUAGCAAUAUUACGUGGC	-4.63 ± 0.29	-2.43 ± 0.24
GCGCAGCAAUAUUACGGGCU	-3.6 ± 0.23	-3.02 ± 0.27
AAGGAGCAAUAUUACGACAU	-2.282 ± 0.02	-1.6 ± 0.037
UGCUAGCAAUAUUACGCGGC	-3.02 ± 0.38	
UUUGAGCAAUAUUACGUGGG	-2.17 ± 0.47	-1.39 ± 0.3
GUUGAGCAAUAUUACGAGAG	-3.95 ± 0.4	-2.63 ± 0.41
AAGUAGCAAUAUUACGCGGU	-2.47 ± 0.31	-2.59 ± 0.39
UUACAGCAAUAUUACGCUUA	-1.38 ± 0.11	-0.114 ± 0.1

Sequence	self-splicing fitness (ln) (30 °C)	self-splicing fitness (ln) (37 °C)
UGUAAGCAAUAUUACGCCAU	-3.9 ± 0.27	-3.35 ± 0.3
GUCUAGCAAUAUUACGUUAC	-0.99 ± 0.099	-0.771 ± 0.096
GUAUAGCAAUAUUACGCAUC	-2.15 ± 0.17	-0.982 ± 0.13
CGUAAGCAAUAUUACGCUGA	-3.48 ± 0.42	-1.42 ± 0.18
CAUCAGCAAUAUUACGACCG	-0.142 ± 0.086	0.366 ± 0.12
GGAUAGCAAUAUUACGCAUA	-1.88 ± 0.45	-2.04 ± 0.39
CCGUAGCAAUAUUACGCAAA		-2.24 ± 0.25
AACGAGCAAUAUUACGGCCA	-3.21 ± 0.18	-1.37 ± 0.13
CGAAAGCAAUAUUACGAUAC	-1.99 ± 0.18	-2.11 ± 0.38
UAAAAGCAAUAUUACGCACU	-0.274 ± 0.056	0.0996 ± 0.068
CCCUAGCAAUAUUACGAUGG	-3.91 ± 0.2	-1.79 ± 0.15
CUGGAGCAAUAUUACGCGAU	-2.76 ± 0.16	-1.9 ± 0.15
AUUUAGCAAUAUUACGUUUA	-1.97 ± 0.19	-1.07 ± 0.21
AAGAAGCAAUAUUACGCAAA	-2.71 ± 0.24	-0.539 ± 0.16
CGUUAGCAAUAUUACGUAAA	-2.88 ± 0.22	-1.88 ± 0.26
UUUGAGCAAUAUUACGUACC	-2.34 ± 0.44	-2.3 ± 0.42
AGCCAGCAAUAUUACGGAGC	-2.39 ± 0.1	-1.83 ± 0.11
UUCGAGCAAUAUUACGCAUU		-2.81 ± 0.43
ACACAGCAAUAUUACGCGAU	-3.11 ± 0.11	-2.02 ± 0.11

From the supplement of paper PMC7877785
